Measured values reported in patent US20250352667A1.

Experiments:
[1] = biological target: KEAP1 (wild-type full-length), His-tagged (human) (UniProt Q14145); assay: AlphaScreen; 1228.8 nM FLAG-NRF2, 150 nM His-KEAP1; signal against NRF2 only
[2] = biological target: KEAP1 (wild-type full-length), His-tagged (human) (UniProt Q14145); assay: AlphaScreen; 19.2 nM FLAG-NRF2, 150 nM His-KEAP1; signal against NRF2 only
[3] = biological target: KEAP1 (wild-type full-length), His-tagged (human) (UniProt Q14145); assay: AlphaScreen; 19.2 nM FLAG-NRF2, 150 nM His-KEAP1; Rep 2
[4] = biological target: KEAP1 (wild-type full-length), His-tagged (human) (UniProt Q14145); assay: AlphaScreen; 38.4 nM FLAG-NRF2, 150 nM His-KEAP1; signal against NRF2 only
[5] = biological target: KEAP1 (wild-type full-length), His-tagged (human) (UniProt Q14145); assay: AlphaScreen; 9.6 nM FLAG-NRF2, 150 nM His-KEAP1; signal against NRF2 only
[6] = biological target: KEAP1 (wild-type full-length), His-tagged (human) (UniProt Q14145); assay: AlphaScreen; 1228.8 nM FLAG-NRF2, 150 nM His-KEAP1; Rep 2
[7] = biological target: KEAP1 (wild-type full-length), His-tagged (human) (UniProt Q14145); assay: AlphaScreen; 2.4 nM FLAG-NRF2, 150 nM His-KEAP1; Rep 1
[8] = biological target: KEAP1 (wild-type full-length), His-tagged (human) (UniProt Q14145); assay: AlphaScreen; 4.8 nM FLAG-NRF2, 150 nM His-KEAP1; Rep 1
[9] = biological target: KEAP1 (wild-type full-length), His-tagged (human) (UniProt Q14145); assay: AlphaScreen; 4.8 nM FLAG-NRF2, 150 nM His-KEAP1; signal against NRF2 only
[10] = biological target: KEAP1 (wild-type full-length), His-tagged (human) (UniProt Q14145); assay: AlphaScreen; 307.2 nM FLAG-NRF2, 150 nM His-KEAP1; signal against NRF2 only
[11] = biological target: KEAP1 (wild-type full-length), His-tagged (human) (UniProt Q14145); assay: AlphaScreen; 76.8 nM FLAG-NRF2, 150 nM His-KEAP1; signal against NRF2 only
[12] = biological target: KEAP1 (wild-type full-length), His-tagged (human) (UniProt Q14145); assay: AlphaScreen; 307.2 nM FLAG-NRF2, 150 nM His-KEAP1; Rep 2
[13] = biological target: KEAP1 (wild-type full-length), His-tagged (human) (UniProt Q14145); assay: AlphaScreen; 2.4 nM FLAG-NRF2, 150 nM His-KEAP1; signal against NRF2 only
[14] = biological target: KEAP1 (wild-type full-length), His-tagged (human) (UniProt Q14145); assay: AlphaScreen; 76.8 nM FLAG-NRF2, 150 nM His-KEAP1; Rep 1
[15] = biological target: KEAP1 (wild-type full-length), His-tagged (human) (UniProt Q14145); assay: AlphaScreen; 307.2 nM FLAG-NRF2, 150 nM His-KEAP1; Rep 1
[16] = biological target: KEAP1 (wild-type full-length), His-tagged (human) (UniProt Q14145); assay: AlphaScreen; 38.4 nM FLAG-NRF2, 150 nM His-KEAP1; Rep 2
[17] = biological target: KEAP1 (wild-type full-length), His-tagged (human) (UniProt Q14145); assay: AlphaScreen; 153.6 nM FLAG-NRF2, 150 nM His-KEAP1; Rep 1
[18] = biological target: KEAP1 (wild-type full-length), His-tagged (human) (UniProt Q14145); assay: AlphaScreen; 38.4 nM FLAG-NRF2, 150 nM His-KEAP1; Rep 1
[19] = biological target: KEAP1 (wild-type full-length), His-tagged (human) (UniProt Q14145); assay: AlphaScreen; 614.4 nM FLAG-NRF2, 150 nM His-KEAP1; Rep 2
[20] = biological target: KEAP1 (wild-type full-length), His-tagged (human) (UniProt Q14145); assay: AlphaScreen; 4.8 nM FLAG-NRF2, 150 nM His-KEAP1; Rep 2
[21] = biological target: KEAP1 (wild-type full-length), His-tagged (human) (UniProt Q14145); assay: AlphaScreen; 76.8 nM FLAG-NRF2, 150 nM His-KEAP1; Rep 2
[22] = biological target: KEAP1 (wild-type full-length), His-tagged (human) (UniProt Q14145); assay: AlphaScreen; 153.6 nM FLAG-NRF2, 150 nM His-KEAP1; signal against NRF2 only
[23] = biological target: KEAP1 (wild-type full-length), His-tagged (human) (UniProt Q14145); assay: AlphaScreen; 153.6 nM FLAG-NRF2, 150 nM His-KEAP1; Rep 2
[24] = biological target: KEAP1 (wild-type full-length), His-tagged (human) (UniProt Q14145); assay: AlphaScreen; 19.2 nM FLAG-NRF2, 150 nM His-KEAP1; Rep 1
[25] = biological target: KEAP1 (wild-type full-length), His-tagged (human) (UniProt Q14145); assay: AlphaScreen; 9.6 nM FLAG-NRF2, 150 nM His-KEAP1; Rep 1
[26] = biological target: KEAP1 (wild-type full-length), His-tagged (human) (UniProt Q14145); assay: AlphaScreen; 1228.8 nM FLAG-NRF2, 150 nM His-KEAP1; Rep 1
[27] = biological target: KEAP1 (wild-type full-length), His-tagged (human) (UniProt Q14145); assay: AlphaScreen; 9.6 nM FLAG-NRF2, 150 nM His-KEAP1; Rep 2
[28] = biological target: KEAP1 (wild-type full-length), His-tagged (human) (UniProt Q14145); assay: AlphaScreen; 614.4 nM FLAG-NRF2, 150 nM His-KEAP1; Rep 1
[29] = biological target: KEAP1 (wild-type full-length), His-tagged (human) (UniProt Q14145); assay: AlphaScreen; 614.4 nM FLAG-NRF2, 150 nM His-KEAP1; signal against NRF2 only

Chain of KEAP1 (wild-type full-length), His-tagged (human) (Q14145 2-624 limits assumed, form in doubt): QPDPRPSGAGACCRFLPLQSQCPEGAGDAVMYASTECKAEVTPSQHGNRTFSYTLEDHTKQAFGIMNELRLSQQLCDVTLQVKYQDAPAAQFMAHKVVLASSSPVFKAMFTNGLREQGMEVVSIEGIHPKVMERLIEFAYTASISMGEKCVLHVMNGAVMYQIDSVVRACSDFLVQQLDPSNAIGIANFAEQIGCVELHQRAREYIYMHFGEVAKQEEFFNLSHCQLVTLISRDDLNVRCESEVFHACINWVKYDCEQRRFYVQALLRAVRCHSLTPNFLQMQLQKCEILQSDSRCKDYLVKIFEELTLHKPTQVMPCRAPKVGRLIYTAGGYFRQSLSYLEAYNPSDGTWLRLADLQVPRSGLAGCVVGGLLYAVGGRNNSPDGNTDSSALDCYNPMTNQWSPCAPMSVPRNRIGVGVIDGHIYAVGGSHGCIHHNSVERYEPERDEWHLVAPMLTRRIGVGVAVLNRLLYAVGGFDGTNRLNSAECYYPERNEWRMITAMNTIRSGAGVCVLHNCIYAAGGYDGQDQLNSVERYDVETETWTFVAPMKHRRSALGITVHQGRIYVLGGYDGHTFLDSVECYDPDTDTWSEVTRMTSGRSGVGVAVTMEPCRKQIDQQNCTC

| Substance | S/N [1] | S/N [2] | A-counts [3] [A-counts] | S/N [4] | S/N [5] | A-counts [6] [A-counts] | A-counts [7] [A-counts] | A-counts [8] [A-counts] | S/N [9] | S/N [10] | S/N [11] | A-counts [12] [A-counts] | S/N [13] | A-counts [14] [A-counts] | A-counts [15] [A-counts] | A-counts [16] [A-counts] | A-counts [17] [A-counts] | A-counts [18] [A-counts] | A-counts [19] [A-counts] | A-counts [20] [A-counts] | also measured |
| --- | --- | --- | --- | --- | --- | --- | --- | --- | --- | --- | --- | --- | --- | --- | --- | --- | --- | --- | --- | --- | --- |
| NRF2 isoform 2 (E63G/E66G full-length), FLAG-tagged | 1 | 1.8 | 1950 | 1.8 | 1.8 | 1210 | 1080 | 1390 | 1.8 | 1.1 | 1.7 | 1650 | 1.7 | 2140 | 1600 | 1960 | 1820 | 2120 | 1400 | 1480 | A-counts [21]: 1900 A-counts; S/N [22]: 1.5; A-counts [23]: 1840 A-counts; A-counts [24]: 1700 A-counts; A-counts [25]: 1670 A-counts; A-counts [26]: 1250 A-counts; A-counts [27]: 1520 A-counts; A-counts [28]: 1570 A-counts; S/N [29]: 1.1 |
| NRF2 isoform 2 (wild-type full-length), FLAG-tagged | 1.3 | 4.2 | 3260 | 3.4 | 3.7 | 1470 | 1130 | 1740 | 2.7 | 2.2 | 3.4 | 2860 | 2 | 3730 | 2970 | 3460 | 3200 | 3470 | 2290 | 1670 | A-counts [21]: 3910 A-counts; S/N [22]: 2.8; A-counts [23]: 3500 A-counts; A-counts [24]: 3480 A-counts; A-counts [25]: 2310 A-counts; A-counts [26]: 1480 A-counts; A-counts [27]: 2590 A-counts; A-counts [28]: 2430 A-counts; S/N [29]: 2.1 |
